Experimental data: patent publication US20020081638

Test system: free histones (mixture of H1, H3, H2B, H2A and H4; Boehringer Mannheim)

GST-SUV39H1(82-412) H320R
in vitro HMTase assay with free histones, activity against the unmutated product: the latter mutation (H320R) resulted in an hyperactive enzyme with approximately 20-fold increased activity
